# Patent US9988424 (DUKE UNIVERSITY, dated 2018)
# Like-named read-outs stand apart in the source and are kept apart here.
# What was measured:
# [1] = molecular target: Env of SHIV-1157ipd3N4 (SHIV); test: cell-based or functional assay
# [2] = molecular target: Env of SHIV-1157ipEL-p (SHIV); test: cell-based or functional assay
# [3] = molecular target: Env of SHIV-BaL (SHIV); test: cell-based or functional assay
# [4] = molecular target: Env of SHIV-SF162P4 (SHIV); test: cell-based or functional assay
# [5] = molecular target: Env of SHIV SF162P3 (SHIV); test: cell-based or functional assay
# [6] = molecular target: T1, J08 B.HXB2/BALV1V2N156QN160Q (HIV-1); test: ELISA, mAb 0.001-100 ug/ml on coated V1V2 scaffold, OD450
# T1 chain: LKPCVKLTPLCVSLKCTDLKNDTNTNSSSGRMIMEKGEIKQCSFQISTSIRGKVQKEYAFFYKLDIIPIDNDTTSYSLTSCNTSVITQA
# [7] = molecular target: T2, gp70 B.HXB2/BALV1V2/N156QN160Q (murine leukemia virus; HIV-1); test: as above
# T2 chain: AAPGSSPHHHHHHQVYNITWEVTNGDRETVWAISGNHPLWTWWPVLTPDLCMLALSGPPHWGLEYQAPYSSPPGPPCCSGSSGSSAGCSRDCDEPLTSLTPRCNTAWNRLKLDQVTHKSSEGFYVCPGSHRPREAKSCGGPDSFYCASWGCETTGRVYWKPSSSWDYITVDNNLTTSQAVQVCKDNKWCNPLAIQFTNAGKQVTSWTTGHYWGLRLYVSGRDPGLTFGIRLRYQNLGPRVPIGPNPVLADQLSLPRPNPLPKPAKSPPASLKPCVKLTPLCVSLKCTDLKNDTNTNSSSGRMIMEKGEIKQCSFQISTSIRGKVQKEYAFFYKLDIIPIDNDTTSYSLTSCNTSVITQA
# [8] = molecular target: T3, J08 A.92RW020V1V2/N156QN160Q (HIV-1); test: as above
# T3 construct: also called J08 A.92RW020VV1V2/N156QN160Q
# [9] = molecular target: T4, gp70 B.HXB2/BALV1V2 (murine leukemia virus; HIV-1); test: as above
# T4 chain: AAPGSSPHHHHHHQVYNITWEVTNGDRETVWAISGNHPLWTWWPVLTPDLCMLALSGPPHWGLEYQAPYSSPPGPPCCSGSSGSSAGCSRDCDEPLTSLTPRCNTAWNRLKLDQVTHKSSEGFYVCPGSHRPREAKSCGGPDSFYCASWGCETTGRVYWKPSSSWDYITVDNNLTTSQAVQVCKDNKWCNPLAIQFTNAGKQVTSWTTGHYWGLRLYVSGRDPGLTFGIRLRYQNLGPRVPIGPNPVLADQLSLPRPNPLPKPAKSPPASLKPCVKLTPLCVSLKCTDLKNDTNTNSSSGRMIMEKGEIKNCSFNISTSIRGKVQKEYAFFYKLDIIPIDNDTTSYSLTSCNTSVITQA
# [10] = molecular target: gp70 A.92RW020V1V2 (murine leukemia virus; HIV-1); test: as above
# [11] = molecular target: T5, J08 C.97ZA012V1V2 (HIV-1); test: as above
# T5 chain: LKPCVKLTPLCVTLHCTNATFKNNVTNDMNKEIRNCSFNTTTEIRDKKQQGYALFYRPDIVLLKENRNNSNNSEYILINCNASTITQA
# [12] = molecular target: B.con gp140CF; test: ELISA, OD405 at 10 ug/ml
# [13] = molecular target: T6, gp70 B.CaseA2 V1/V2 (HIV-1 V1V2 on murine leukemia virus gp70); test: ELISA
# T6 construct: also called B.gp70CaseA2 V1/V2; gp70 B.CaseAV1V2
# T6 chain: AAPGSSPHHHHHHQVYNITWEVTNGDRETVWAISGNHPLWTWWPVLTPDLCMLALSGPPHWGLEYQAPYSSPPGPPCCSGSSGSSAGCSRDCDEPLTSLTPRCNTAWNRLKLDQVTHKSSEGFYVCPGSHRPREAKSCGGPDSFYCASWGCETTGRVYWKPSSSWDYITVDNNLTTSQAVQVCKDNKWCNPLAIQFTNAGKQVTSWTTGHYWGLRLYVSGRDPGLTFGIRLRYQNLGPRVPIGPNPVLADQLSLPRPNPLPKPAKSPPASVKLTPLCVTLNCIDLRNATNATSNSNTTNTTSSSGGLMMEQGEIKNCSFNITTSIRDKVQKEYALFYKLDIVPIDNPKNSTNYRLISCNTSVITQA
# [14] = molecular target: T1, J08 B.HXB2/BALV1V2N156QN160Q; test: ELISA
# [15] = molecular target: T2, gp70 B.HXB2/BALV1V2/N156QN160Q; test: ELISA
# [16] = molecular target: T4, gp70 B.HXB2/BALV1V2; test: ELISA
# [17] = molecular target: T7, J08 B.HXB2/BALV1V2 (HIV-1); test: ELISA
# T7 construct: also called J08 B.HXB/BAL V1V2
# T7 chain: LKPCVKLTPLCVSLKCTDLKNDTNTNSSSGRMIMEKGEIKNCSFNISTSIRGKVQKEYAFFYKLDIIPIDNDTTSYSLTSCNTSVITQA
# [18] = molecular target: D.9009SA V1/V2 tags; test: ELISA, OD405 at 10 ug/ml
# [19] = molecular target: C.1086 V1V2 Tags (HIV-1); test: ELISA, OD405 at 10 ug/ml
# [20] = molecular target: C.CAP206 gp140CF.12 (HIV-1); test: ELISA, OD405 at 10 ug/ml
# [21] = molecular target: B.con gp140CF; test: ELISA, OD405 at 10 ug/ml; remark: listed apart in the source
binder,measurement,setting,value
"CH59 (antibody, V domains shown, also called mAb CH59) VH: EVQLVESGGGLVQPGRSLRLSCAASGFTFDDGAMHWVRQAPGKGLEWVSGISWNSNIIAYADSVKGRFTISRDNAKNSLYLEMNSLRVEDTALYYCAKDSPRGELPLNYWGQGTLVTVSS VL: SYELTQPPSVSVSPGQTARITCSGDALPKNYAYWYQQKSGQAPVLVIYEDSKRPSGIPERFSGSSSGTMATLTISGAQVEDEADYYCYSTDSSGNHRVFGGGTKLTVL","EC50, neutralization of SHIVC.1157ipd3N4 (tier 2)",[1],> 50 µg/mL
same,"EC50, neutralization of SHIV C.1157ipEL-p (tier 1A)",[2],24.6 µg/mL
same,"EC50, neutralization of SHIV B.BaL (tier 2)",[3],> 50 µg/mL
same,"EC50, neutralization of SHIV B.SF162P4 (tier 2)",[4],> 50 µg/mL
same,"EC50, neutralization of SHIV B.SF162P3 (tier 2)",[5],> 50 µg/mL
"PG16 (antibody, V domains shown, also called mAb PG16; bnAb PG16) VH: QEQLVESGGGVVQPGGSLRLSCLASGFTFHKYGMHWVRQAPGKGLEWVALISDDGMRKYHSDSMWGRVTISRDNSKNTLYLQFSSLKVEDTAMFFCAREAGGPIWHDDVKYYDFNDGYYNYHYMDVWGKGTTVTVSS VL: QSALTQPASVSGSPGQTITISCNGTSSDVGGFDSVSWYQQSPGKAPKVMVFDVSHRPSGISNRFSGSKSGNTASLTISGLHIEDEGDYFCSSLTDRSHRIFGGGTKVTVL",binding result,[6],no binding (tested: 100 ug/ml)
same,binding result,[7],no binding (tested: 100 ug/ml)
same,binding result,[8],no binding (tested: 100 ug/ml)
same,binding result,[9],no binding (tested: 100 ug/ml)
same,binding result,[10],no binding (tested: 100 ug/ml)
same,binding result,[11],no binding (tested: 100 ug/ml)
"PG16 reverted unmutated ancestor antibody (antibody, V domains shown, also called PG16 RUA; PG16_RUA) VH: QVQLVESGGGVVQPGRSLRLSCAASGFTFSSYGMHWVRQAPGKGLEWVAVISYDGSNKYYADSVKGRFTISRDNSKNTLYLQMNSLRAEDTAVYYCAREAGGPIWHDDVKYYDFNDGYYYYYYMDVWGKGTTVTVSS VL: QSALTQPASVSGSPGQSITISCTGTSSDVGSYNLVSWYQQHPGKAPKLMIYEVSKRPSGVSNRFSGSKSGNTASLTISGLQAEDEADYYCCSLTDRSHRIFGGGTKLTVL",binding result,[12],no binding (tested: 10 ug/ml)
"697D (antibody, V domains shown, also called mAb 697D; V2 conformational mAb 697D) VH: QVQLVQSGAEVKKPGSSVKVSCKASGGNFNTYTISWVRQAPGQGLEWMGRIIPIFGIVNPAQKFPGRVTINVDKSTNTAYMELSSLRSEDTAVYYCATSGVGLHFGYFDYWGQGTQVTVSS VL: QSVLTQPPSVSGAPGQRVTISCTGSSSNIGAHYDVHWYQQLPGTAPKLLIYGNSNRPSGVPDRFSGSKSGTSASLAITGLQAEDEADYYCQSYDSSLSGYVFGTGTKVTVL",EC50,[13],50 pM
same,EC50,[14],66000 pM
same,EC50,[15],> 667000 pM
same,EC50,[16],640 pM
same,EC50,[17],120 pM
"697D reverted unmutated ancestor antibody (antibody, V domains shown, also called 697D RUA) VH: QVQLVQSGAEVKKPGSSVKVSCKASGGTFSSYTISWVRQAPGQGLEWMGRIIPILGIANYAQKFQGRVTITADKSTSTAYMELSSLRSEDTAVYYCATSGVGLHFGYFDYWGQGTLVTVSS VL: QSVLTQPPSVSGAPGQRVTISCTGSSSNIGAGYDVHWYQQLPGTAPKLLIYGNSNRPSGVPDRFSGSKSGTSASLAITGLQAEDEADYYCQSYDSSLSGYVFGTGTKVTVL",binding result,[18],no binding (tested: 10 ug/ml)
same,binding result,[19],no binding (tested: 10 ug/ml)
same,binding result,[20],no binding (tested: 10 ug/ml)
same,binding result,[21],no binding (tested: 10 ug/ml)
